According to the MegaScale stability set (Tsuboyama et al. 2023):

B1: EHEE_rd4_0726 (parent)
chain: DIEITTNGEEDAKRVIKELQKRNLEYHIEVHGNQWVIKVR

Variants of: B1
Assay: folding stability dG (cDNA display proteolysis); higher = more stable
Settings: PBS, room temperature

Folding stability dG [kcal/mol], by site and new letter:
V39: A 1.06 | K -0.993 | H 0.549 | S 0.617 | W 1.83 | F 2.15 | P -0.609 | G 0.015 | I 2.58 | R -0.082 | Q -0.263 | M 1.44 | Y 2.08 | T 1.12 | L 1.98
V36: W 1.16 | T 1.77 | Y 1.7 | S 0.912
R40: N 1.97 | E 1.73 | G 1.81 | S 2.18 | A 2.12 | P 1.89 | Y 2.57 | H 2.74 | L 2.7 | M 2.58 | F 2.73 | T 2.48 | I 2.84 | V 2.65 | D 1.59 | C 2.97 | W 2.3 | K 2.63 | Q 2.11
I37: F 1.95 | C 1.49 | M 0.481 | V 1.5 | L 1.21
K38: A 1.32 | E 0.557 | Y 2.68 | T 2.77 | M 2.16 | G 0.141 | Q 1.62 | N 1.29 | L 2.34 | F 2.63 | H 2.39 | V 2.7 | R 2.58 | D -0.365 | I 3.04 | S 1.94 | W 2.19 | C 2.33
